Values quoted from earlier work as cited in article PMC2627783.
pKd: −log10 of the molar value.

Molecular target: IscU (Escherichia coli) (UniProt P0ACD4)
Test: ITC

Chain of IscU (Escherichia coli) (P0ACD4 whole entry): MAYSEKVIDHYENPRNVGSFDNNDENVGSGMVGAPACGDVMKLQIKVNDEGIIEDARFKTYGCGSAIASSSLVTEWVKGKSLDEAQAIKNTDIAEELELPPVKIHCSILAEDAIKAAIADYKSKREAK
Chain of HscB (P0A6L9 whole entry): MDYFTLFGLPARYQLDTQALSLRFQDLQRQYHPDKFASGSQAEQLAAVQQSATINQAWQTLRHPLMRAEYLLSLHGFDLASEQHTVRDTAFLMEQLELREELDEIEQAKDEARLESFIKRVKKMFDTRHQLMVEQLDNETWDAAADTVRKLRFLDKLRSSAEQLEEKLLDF

Substance: HscB (from UniProt P0A6L9)
- pKd: 5.00
